Data as given in patent publication US8624002B2, “Prostaglandin E2 binding proteins and uses thereof” (AbbVie, Inc., priority 2008, dated 2014).

Tests used:
[1] = tested on: carrageenan-induced paw edema; assay: Carrageenan-induced footpad edema model; assay type: in vivo, C57.BL/6 mice; settings: 3 mg/kg, p.o.
Protocol: Carrageenan-Induced Footpad Edema is an acute rodent model of innate immune function. The in vivo efficacy of mouse anti-PGE2 antibody 2B5-8.0 is assessed in a carragenan-induced paw edema model. The induction of paw inflammation with carrageenan is performed similarly as previously described (Joseph P. Portanova, et al. J. Exp. Med. 184: 883-891 (1996)). Intradermal (ID) injection of an inflammatory agent causes a rapid influx of neutrophils and fluid edema which peaks at approximately 4 hours, followed by an influx of macrophages and monocytes which peaks at approximately 48 hours. C57.BL/6 mice (8-10-week-old, Jackson Laboratories, Bar Harbor, Me.) were injected ID in the rear footpad with 30 μL of either PBS (left) or λ-carrageenen (Sigma Aldrich, St. Louis, Mo.) in PBS (right) at a concentration of 5.0 mg/mL (150 μg/mouse). Rear footpad thickness was measured by Dyer spring caliper model #310-119 at baseline (time=0), and 4 hours post carrageenan challenge. Significant difference for paw thickness was determined by comparing mean paw swelling for each treatment group to vehicle in a Student's two-tailed t-test. Mice were given a dose titration of an anti-PGE2 antibody (2B5-8.0) intraperitonially (IP) 18 hours prior to carrageenan challenge, or Indomethacin, PO 2 hours prior to challenge. The endpoint measured was the difference in paw swelling (edema) between right and left paws 4 hours after treatment.

[2] = Capillary zone electrophoresis; assay type: physicochemical; settings: running buffer pH 5.5; compared with Hu2B5.2, Hu2B5.4, Hu2B5.6, Hu2B5.8
From the text: Capillary zone electrophoresis is a capillary electrophoresis method in which the capillary is filled with buffer and the separation mechanism is based on differences in electrophoretic mobility of the analyte through the buffer. The electrophoretic mobility of a molecule is related to the charge-to-size ratio. A Beckman-Coulter ProteomeLab PA 800 (Beckman Coulter, Fullerton, Calif.) was used for the CZE analysis. A neutral capillary (eCAP neutral, 56 cm total length, 50 μm I. D. Beckman-Coulter, P/N 477441, Fullerton, Calif.) was used. The method used a 30.2 cm capillary with a detection window 20.2 cm from the sample introduction inlet. The running buffer was 100 mM EACA (6-Aminocaproic acid, Sigma A7824-100 G, St. Louis, Mo.) with 0.1% MC (from 1% Methylcellulose solution, Convergent Bioscience, cat# 101876, Toronto, ON, Canada), pH 5.5.

[3] = Biotin-PGE2 ELISA (PGE2-biotinamide binding to captured IgG)
[4] = ^3H-PGE2 competition ELISA (prostaglandin selectivity); assay type: binding
Protocol: Alternatively, prostaglandin selectivity was determined using a ^3H-PGE2 competition ELISA. Plates were coated with 50 μL/well of 5 μg/ml of goat anti-human IgG (Fc) (Thermo Scientific # 31170, Hudson, N.H.) or goat anti-mouse IgG (Fc) (Thermo Scientific # 31125, Hudson, N.H.) in PBS and incubated overnight at 4° C. The following day plates were flicked and blotted dry. Plates were blocked with 200 μL/well of Superblock (Thermo Scientific # 37515, Hudson, N.H.), 1 hour at room temperature. Plates were flicked and blotted dry. Monoclonal antibodies were diluted to 0.04 μg/ml in PBST (Abbott Bioresearch Center, Worcester, Mass.)/10% Superblock and 50 μL of each was added to each well (2 ng/well) of the pre-blocked ELISA plate and incubated for 1 hour at room temperature. Wells were washed 3 times with PBS/0.1% Tween-20. ^3H-PGE2 (Perkin Elmer # NET-428, Waltham, Mass.) was diluted in PBST/10% Superblock to 6 nM (2× stock). Each prostaglandin (Cayman Chemicals, Ann Arbor, Mich.) was prepared in PBST+10% Superblock at various concentrations ranging from 2000 μM (2× stock) to 0.00004 μM (2×). Equal volumes of the ^3H-PGE2 solution and of each prostaglandin dilution were mixed. Fifty microliters of this mixture was then added to each well of the plate and incubated for 1 hour at room temperature. Wells were washed manually 6 times with PBST/10% Superblock and 50 μL of scintillation fluid (Perkin Elmer # 6013621, Waltham, Mass.) added to each well. Plates were read using a TopCount reader (Perkin Elmer, Waltham, Mass.) with a 5 minute count delay. IC50 number was determined using GraphPad Prism 5 (GraphPad Software, La Jolla, Calif.). The cross reactivity index was then calculated by IC50 of PGE2/IC50 of other prostaglandin(s)

[5] = Pharmacokinetics of hu2B5.7 and hu2B5.4 in Sprague-Dawley rats; assay type: in vivo; settings: male Sprague-Dawley rats, IV 4 mg/kg
Protocol: Pharmacokinetic parameters were calculated by non-compartmental analysis using WinNonlin.
MSD streptavidin plates (Meso Scale Discovery) were washed with phosphate buffered saline containing 0.05% Tween-20 (diluted from 10×PBS, Abbott Bioresearch Center, Media Room, Worcester, Mass. and Tween-20, Sigma, St. Louis, Mo.). Plates were blocked with 250 μL/well blocking solution (MSD Block, Meso Scale Discovery, diluted to 3% final concentration in PBS) for 1 hour, covered, with shaking (600 rpm) at room temperature. After washing, 70 μL of biotinylated PGE2 (Prostoglandin E2-biotinamide, Cayman Chemical, Ann Arbor, Mich., cat# 10006987, lot# 190831-191028; 0.01 ug/mL in assay buffer) was added to each well. The plates were covered and incubated with shaking (600 rpm) for 1 hour at room temperature.
Prior to analysis, rat serum samples were thawed on ice, mixed gently, and centrifuged at 14,000 rpm for 3 minutes at 4° C. in an eppendorf centrifuge. Standard curve and control samples were prepared in rat serum. Tecan Evo automated liquid handling station was used to dilute standard curve, high, medium, and low controls, and serum samples in assay buffer, keeping 1% final serum concentration constant. MSD plates were washed again and study samples, standard curve samples and blanks, as well as high, medium, and low controls were added (70 μL/well). The plates were covered, and incubated for 1 hour with shaking (600 rpm) at room temperature.
After incubation, the MSD plates were washed, and 70 μL sulfo-tagged goat anti-human IgG (Meso Scale Discovery; diluted to 1 ug/mL in assay buffer) was added to each well. The MSD plates were covered, and incubated with shaking (600 rpm) for 1 hour at room temperature, then the plates were washed and developed with 2× Read Buffer (Meso Scale Discovery). Chemilumeniscence was measured within ten minutes on the MSD Sector Imager 6000.
Standard curves were analyzed using four-parameter logistic fit and sample concentrations were calculated by XLfit4 software version 2.2.1 Build 16, ([…].). Pharmacokinetic parameters were calculated for each animal using Winonlin software version 5.0.1 (Pharsight Corporation, Mountain View, Calif.) by noncompartmental analysis.
Surgically altered jugular vein cannulated, JVC) male Sprague-Dawley Rats (approximately seven weeks old, weighing 240-390 grams) were purchased from Charles River Laboratories (Wilmington, Mass.). The animals were housed in rooms maintained at constant temperature and humidity under a 12 hour light/dark cycle, fed with normal rodent chow and were allowed food and water ad libitum. Hydration and clinical conditions of the animals were monitored daily.
0.2 mL blood samples were collected from the rats at various timepoints, allowed to clot for 30 minutes at room temperature, centrifuged for 3 minutes at 13,200 rpm, the serum transferred to eppendorf tubes and stored frozen at −80° C.

[6] = tested on: PGE2 induced Ca++ influx in HEK293 Gα16 cells stably transfected with human EP4 receptor; assay: EP4 bioassay: PGE2 induced Ca++ flux (FLIPR); assay type: cell-based; settings: PGE2 25 pm; read-out: IC50 (pM) @ PGE2 25 pm Cellular Potency in EP4 assay
Protocol: The ability of anti-PGE2 antibody to inhibit cellular response of PGE2 in vitro was determined in a Ca^++ flux assay in HEK293 Gα16 cells (Abbott Bioresearch Center, Worcester, Mass.) stably transfected with human EP4 receptor. In brief, an expression plasmid encoding one of the four human PGE2 receptors, EP4, and an expression plasmid encoding Gα16, were co-transfected into human embryonic kidney cell line 293 cells (ATCC# CRL1573, Manassas, Va.). The stable clones co-expressing both human EP4 and Gα16 protein were selected using standard methods (Joseph Sambrook and David W. Russell. Molecular Cloning: A Laboratory Manual Publisher. Published by Cold Spring Harbor Laboratory Press, 2001) and used for the EP4 bioassay. The HEK293 Gα16 cells were plated in black/clear poly-D-lysine plates (Corning #3667, Corning, N.Y.) and incubated with a Ca^++-sensitive dye (Molecular Devices, Sunnyvale, Calif.) for 90 minutes. Stock PGE2 (in 200 proof ethanol) was diluted with FLIPR buffer [containing 1×HBSS (Invitrogen Carlsbad, Calif.), 20 mM HEPES (Invitrogen Carlsbad, Calif.), 0.1% BSA (Sigma, St. Louis, Mo.) and 2.5 mM Probenecid (Sigma, St. Louis, Mo.)]. Anti-PGE2 antibodies or isotype matched control antibodies were also pre-diluted in FLIPR buffer. 25 μl of PGE2 or pre-incubated PGE2/antibody mixture was added to the wells pre-plated with cells. The dose response of PGE2 was determined on a serial titration of PGE2 and using FLIPR1 or Tetra (Molecular Devices, Sunnyvale, Calif.) and EC50 was determined using GraphPad Prism 5 (GraphPad Software, La Jolla, Calif.). […] Ca^++ flux was monitored using FLIPR1 and data was analyzed using GraphPad Prism 5 (GraphPad Software, La Jolla, Calif.).

COc1ccc2c(c1)c(CC(=O)O)c(C)n2C(=O)c1ccc(Cl)cc1 [Indomethacin, reference compound]
Δ Paw Swelling (mm) ([1]; 2 hours prior to challenge, 4 hours post challenge): 0.486 ± 0.03 mm
% Inhibition ([1]; paw swelling 4 hours post challenge): 57 ± 3.5%

B1: Hu2B5.7: humanized 2B5-8.0; VH SEQ ID NO 72, VL SEQ ID NO 73 (antibody, V domains shown)
VH: EVQLVQSGAEVKKPGASVKVSCKASGYTFTKYWLGWVRQAPGQGLEWMGDIYPGYDYTHYNEKFKDRVTLTTDTSTSTAYMELRSLRSDDTAVYYCARSDGSSTYWGQGTLVTVSS
VL: DVLMTQTPLSLPVTPGEPASISCTSSQNIVHSNGNTYLEWYLQKPGQSPQLLIYKVSNRFSGVPDRFSGSGSGTDFTLKISRVEAEDVGVYYCFQVSHVPYTFGGGTKVEIKR
migration in capillary zone electrophoresis [2]: migrated more basic
EC50 [3]: 79 pM
prostaglandin binding specificity in ^3H-PGE2 competition ELISA [4]: demonstrated specificity to PGE2
AUC0-∞ [5]: 9.9 ± 1.8 mg·h/mL
CL [5]: 0.41 ± 0.07 mL/h/kg
MRT [5]: 16.8 ± 1.0 days
T½ [5]: 12.4 days
Vss [5]: 165 ± 19.8 mL/kg
Vz [5]: 176 ± 30.8 mL/kg
IC50 [6]: 78 pM

B2: Hu2B5.5: humanized 2B5-8.0; VH SEQ ID NO 68, VL SEQ ID NO 69 (antibody, V domains shown)
VH: EVQLVQSGAEVKKPGASVKVSCKASGYTFTKYWLGWVRQAPGQGLEWMGDIYPGYDYTHYNEKFKDRVTLTTDTSTSTAYMELRSLRSDDTAVYYCARSDGSSTYWGQGTLVTVSS
VL: DVVMTQTPLSLPVTPGEPASISCTSSQNIVHSNGNTYLEWYLQKPGQSPQLLIYKVSNRFSGVPDRFSGSGSGTDFTLKISRVEAEDVGVYYCFQVSHVPYTFGGGTKVEIKR
migration in capillary zone electrophoresis [2]: migrated more basic
EC50 [3]: 37 pM
IC50 [6]: 47 pM
